B1: 89 (nucleic acid, listed as Homo sapiens)
chain: GTAGTGCGGCGCTGTTTAAAGATGGCGGCGGAGGAACCTCAGCAGCAGAAGCAGGAGCCGCTGGGCAGCGACTCCGAAGGTGTTAACTGTCTGGCCTATGATGAAGCCATCATGGCTCAGCAGGACCGAATTCAGCAAGAGATTGCTGTGCAGAACCCTCTGGTGTCAGAGCGGCTGGAGCTCTCGGTCCTATACAAGGAGTATGCTGAAGATGACAACATCTATCAACAGAAGATCAAGGACCTCCACAAAAAGTACTCGTACATCCGCAAGACCAGGCCTGACGGCAACTGTTTCTATCGGGCTTTCGGATTCTCCCACTTGGAGGCACTGCTGGATGACAGCAAGGAGTTGCAGCGGTTCAAGGCTGTGTCTGCCAAGAGCAAGGAAGACCTGGTGTCCCAGGGCTTCACTGAATTCACAATTGAGGATTTCCACAACACGTTCATGGACCTGATTGAGCAGGTGGAGAAGCAGACCTCTGTCGCCGACCTGCTGGCCTCCTTCAATGACCAGAGCACCTCCGACTACCTTGTGGTCTACCTGCGGCTGCTCACCTCGGGCTACCTGCAGCGCGAGAGCAAGTTCTTCGAGCACTTCATCGAGGGTGGACGGACTGTCAAGGAGTTCTGCCAGCAGGAGGTGGAGCCCATGTGCAAGGAGAGCGACCACATCCACATCATTGCGCTGGCCCAGGCCCTCAGCGTATCCATCCAGGTGGAGTACATGGACCGCGGCGAGGGCGGCACCACCAATCCGCACATCTTCCCTGAGGGCTCCGAGCCCAAGGTCTACCTTCTCTACCGGCCTGGACACTACGATATCCTCTACAAATAGGGCTGGCTCCAGCCCGCTGCTGCCCTGCTGCCCCCCTCTGCCAGGCGCTAGACATGTACAGAGGTTTTTCTGTGGTTGTAAATGGTCCTATTTCACCCCCTTCTTCCTGTCACATGACCCCCCCCCATGTTTTATTAAAGGGGGTGCTGGTGGTG
modifications: CDS (22)..(834)
B2: 85 (nucleic acid, listed as Homo sapiens)
chain: ATTTCCGGTTCCGGCTGCGGGCCGGTGAAGATATGGCGGCGTCTGCGTCTGCAGCTGCAGGGGAGGAGGACTGGGTCCTTCCCTCTGAAGTTGAAGTATTGGAGTCCATCTATCTAGATGAACTACAGGTGATTAAAGGAAATGGCAGAACTTCACCATGGGAGATCTACATCACTTTGCATCCTGCCACTGCAGAGGACCAGGATTCACAGTATGTCTGCTTCACTCTGGTGCTTCAGGTCCCAGCAGAGTATCCCCATGAGGTGCCACAGATCTCTATCCGAAATCCCCGAGGACTTTCAGATGAACAGATCCACACGATCTTACAGGTGCTGGGCCACGTGGCCAAGGCTGGGCTGGGCACTGCCATGCTGTATGAACTCATTGAGAAAGGGAAGGAAATTCTCACAGATAACAACATCCCTCATGGCCAGTGTGTCATCTGCCTCTATGGTTTCCAGGAGAAGGAGGCCTTTACCAAAACACCCTGTTACCACTACTTCCACTGCCACTGCCTTGCTCGGTACATCCAGCACATGGAGCAAGAGCTGAAGGCACAAGGACAGGAGCAGGAACAGGAACGGCAGCATGCTACAACCAAACAGAAGGCAGTCGGTGTGCAGTGTCCAGTGTGCAGAGAGCCCCTCGTGTATGATCTTGCCTCACTGAAAGCAGCCCCTGAACCCCAACAGCCCATGGAGCTGTACCAGCCCAGTGCAGAGAGCTTGCGCCAGCAAGAAGAACGCAAGCGGCTCTACCAGAGGCAGCAGGAGCGGGGGGGAATCATTGACCTTGAGGCTGAGCGAAACCGATACTTCATCAGCCTTCAGCAGCCTCCTGCCCCTGCGGAACCTGAGTCAGCTGTAGATGTCTCCAAAGGATCCCAACCACCCAGCACCCTTGCAGCAGAACTATCCACCTCACCAGCCGTCCAATCCACTTTGCCACCTCCTCTGCCTGTGGCGACCCAGCACATATGTGAGAAGATTCCAGGGACCAGGTCAAATCAGCAAAGGTTGGGCGAAACCCAGAAAGCTATGCTAGATCCCCCCAAGCCCAGTCGAGGTCCCTGGCGACAGCCCGAACGGAGGCACCCAAAGGGAGGGGAGTGCCACGCCCCTAAAGGTACCCGTGACACCCAGGAACTGCCACCTCCTGAGGGGCCCCTCAAGGAGCCCATGGACCTAAAGCCAGAACCCCATAGCCAAGGAGTTGAAGGTCCTCCACAAGAGAAGGGGCCTGGCAGCTGGCAGGGGCCCCCACCCCGCAGGACTCGGGACTGTGTTCGCTGGGAGCGCTCTAAGGGCCGGACACCCGGTTCTTCCTACCCTCGCCTGCCTCGGGGCCAGGGAGCATACCGGCCTGGTACTCGGAGGGAGTCCCTGGGCCTGGAATCTAAGGATGGTTCCTAGCAGGACTTGGTGGGGGGAACAGGGAATTGGGGATGGGAGGGAGGCAATAAAGATATTTGGCCTTCTTTGGCTTTCTTTGCTT
modifications: CDS (33)..(1409)
B3: 293 (nucleic acid, listed as Homo sapiens)
chain: GAGCATACACCGAGAGAGTGAGGAGCCAGACGACAAGCACACACTATGGCGCTGAAACGGATTAATAAGGAACTTAGTGATTTGGCCCGTGACCCTCCAGCACAATGTTCTGCAGGTCCAGTTGGGGATGATATGTTTCATTGGCAAGCCACAATTATGGGACCTAATGACAGCCCATATCAAGGCGGTGTATTCTTTTTGACAATTCATTTTCCTACAGACTACCCCTTCAAACCACCTAAGGTTGCATTTACAACAAGAATTTATCATCCAAATATTAACAGTAATGGCAGCATTTGTCTCGATATTCTAAGATCACAGTGGTCGCCTGCTTTAACAATTTCTAAAGTTCTTTTATCCATTTGTTCACTGCTATGTGATCCAAACCCAGATGACCCCCTAGTGCCAGAGATTGCACGGATCTATAAAACAGACAGAGATAAGTACAACAGAATATCTCGGGAATGGACTCAGAAGTATGCCATGTGATGCTACCTTAAAGTCAGAATAACCTGCATTATAGCTGGAATAAACTTTAAATTACTGTTCCTTTTTTGATTTTCTTATCCGGCTGCTCCCCTGATCAGACCTCATCTTTTTTAATTTTATTTTTTGTTTACCTCCCTCCATTCATTCACATGCTCATCTGAGAAGACTTAAGTTCTTCCAGCTTTGACAATAACTGCTTTTAGAAACTGTAAAGTAGTTACAAGAGAACAGTTGG
modifications: CDS (46)..(486)
B4: 295 (nucleic acid, listed as Homo sapiens)
chain: ACTCGTGCGTGAGGCGAGAGGAGCCGGAGACGAGACCAGAGGCCGAACTCGGGTTCTGACAAGATGGCCGGGCTGCCCCGCAGGATCATCAAGGAAACCCAGCGTTTGCTGGCAGAACCAGTTCCTGGCATCAAAGCCGAACCAGATGAGAGCAACGCCCGTTATTTTCATGTGGTCATTGCTGGCCCTCAGGATTCCCCCTTTGAGGGAGGGACTTTTAAACTTGAACTATTCCTTCCAGAAGAATACCCAATGGCAGCCCCTAAAGTACGTTTCATGACCAAAATTTATCATCCTAATGTAGACAAGTTGGGAAGAATATGTTTAGATATTTTGAAAGATAAGTGGTCCCCAGCACTGCAGATCCGCACAGTTCTGCTATCGATCCAGGCCTTGTTAAGTGCTCCCAATCCAGATGATCCATTAGCAAATGATGTAGCGGAGCAGTGGAAGACCAACGAAGCCCAAGCCATAGAAACAGCTAGAGCATGGACTAGGCTATATGCCATGAATAATATTTAAATTGATACGATCATCAAGTGTGCATCACTTCTCCTGTTCTGCCAAGACTTCCTCCTCTTTGTTTGCATTTAATGGACACAGTCTTAGAAACATTACAGAATAAAAAAGCCCAGACATCTTCAGTCCTTTGGTGATTAAATGCACATTAGCAAATCTATGTCTTGTCCTGATTCACTGTCATAAAGCATGAGCAGAGGCTAGAAGTATCATCTGGATTGTTGTGAAACGTTTAAAAGCAGTGGCCCCTCCCTGCTTTTATTCATTTCCCCCATCCTGGTTTAAGTATAAAGCACTGTGAATGAAGGTAGTTGTCAGGTTAGCTGCAGGGGTGTGGGTGTTTTTATTTTATTTTATTTTATTTTATTTTTGAGGGGGGAGGTAGTTTAATTTTATGGGCTCCTTTCCCCCTTTTTTGGTGATCTAATTGCATTGGTTAAAAGCAGCTAACCAGGTCTTTAGAATATGCTCTAGCCAAGTCTAACTTTATTTAGACGCTGTAGATGGACAAGCTTGATTGTTGGAACCAAAATGGGAACATTAAACAAACATCACAGCCCTCACTAATAACATTGCTGTCAAGTGTAGATTCCCCCCTTCAAAAAAAGCTTGTGACCATTTTGTATGGCTTGTCTGGAAACTTCTGTAAATCTTATGTTTTAGTAAAATATTTTTTGTTATTCT
modifications: CDS (64)..(519)

This series concerns STAT6. Description: Screening of full-length cDNA clones for promotion of STAT6 activation (luciferase reporter N4×8-luc). Type of series: cell-based. To be noted: NIH3T3 cells cotransfected with N4×8-luc reporter and cDNA plasmid; 48 h culture, then mouse IL-4 0.5 ng/ml for 6 h. In a few lines:
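Promotion of STAT6 activation scored as increase in luciferase signal over null-vector control cells. NIH3T3 cells carried N4×8-luc (100 ng) plus cDNA clone; after 48 h culture, 6 h stimulation with 0.5 ng/ml (final) mouse IL-4 preceded reading.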
In general terms: In a reporter assay the amount or activity of a reporter protein is the signal.
Consider B1, for which the “Activity = (luciferase activity of the gene of each SEQ ID NO:)/(luciferase activity of pME18S-FL3)” value is recorded as 10.2.

As for B2, the “Activity = (luciferase activity of the gene of each SEQ ID NO:)/(luciferase activity of pME18S-FL3)” value is 11.5.

B3: the “Activity = (luciferase activity of the gene of each SEQ ID NO:)/(luciferase activity of pME18S-FL3)” value is on record as 25.8.

Consider B4, for which the “Activity = (luciferase activity of the gene of each SEQ ID NO:)/(luciferase activity of pME18S-FL3)” value is 31.0.

Values taken from patent publication US20030092616A1, “STAT6 activation gene” (priority 2001, published 2003).
